Data from patent US8450054B2, “Modified Luciola cruciata luciferase gene and protein” (Marker Gene Technologies, Inc., priority 2008, dated 2013).

Legend:
NIH 3T3 cells = experiment: Luciferase expression levels in transfected mammalian cells (luminescence of lysates); type: cell-based, murine; conditions: mammalian cell systems
Method: NIH 3T3 cells (murine […] fibroblasts) were grown to 80% confluence in 100 mm tissue culture plates. Cells were transfected with either pDC57 or pDC99 using Lipofectamine and PLUS reagents (Invitrogen).
(§1) Transfected NIH 3T3 cells prepared in Example 4 were lysed using a lysis buffer comprised of 25 mM Tris-phosphate (pH 7.8), containing 10% glycerol, 1% Triton X-100, 1 mg/ml BSA, 2 mM EGTA and 2 mM DTT. Cells were washed with 1× Phosphate Buffered Saline, and lysis buffer (1 mL) was added to surface of plate. Plate was incubated for 30 mins, and lysate was collected. Additionally, NIH 3T3 cells were transfected with pSV40-GL3, a construct containing wild type luciferase from Photinus pyralis, as per the method in Example 4 and lysed using the above method. As a negative control, untransfected NIH 3T3 cells were also lysed by the above method.
(§2) Cell lysates were diluted using lysis buffer, and added in triplicate to wells of a solid white 96-well plate (Costar). Added to cell lysates was a reagent containing 1 mM D-luciferin and 2 mM ATP in a buffer comprised of 25 mM Glycylglycine, 15 mM MgSO4, 4 mM EDTA, 15 mM Potassium phosphate pH 7.8, 1 mM DTT, and 1 mM Coenzyme A.
(§3) Luminescence was recorded using a Perkin-Elmer HTS7000 Plus Bio Assay Reader (200 ms integration time).

[1] = Thermal stability of modified Luciola cruciata luciferase protein versus wild type protein (residual luminescence of cell lysates after incubation); conditions: for stability of the protein relative to wild type: 37° C.
Method: as §1, §2, §3
Cell lysates from NIH 3T3 cells transfected with pDC99 and pSV40-GL3 (transfected according to method in Example 4), as well as untransfected cells were prepared as described in Example 5a. Luminescence of each sample was recorded as described in Example 5a to obtain a baseline value of enzyme activity. Portions of each sample were then incubated in water baths at 37° C., 42° C., and 55° C. A portion of each sample was also incubated at ambient room temperature (25° C.). At 1 hour and 2 hour intervals, aliquots of each temperature-incubation were removed and assayed for activity using the method described in Example 5a.

B1: modified luciferase: Luciola cruciata luciferase with Ser to Tyr change at position 286, amino acid sequence SEQ ID NO:4, encoded by codon optimized gene SEQ ID NO:3 (protein, listed as Luciola cruciata)
chain: MENMENDENIVVGPKPFYPIEEGSAGTQLRKYMERYAKLGAIAFTNAVTGVDYSYAEYLEKSCCLGKALQNYGLVVDGRIALCSENCEEFFIPVIAGLFIGVGVAPTNEIYTLRELVHSLGISKPTIVFSSKKGLDKVITVQKTVTTIKTIVILDSKVDYRGYQCLDTFIKRNTPPGFQASSFKTVEVDRKEQVALIMNSSGSTGLPKGVQLTHENTVTRFSHARDPIYGNQVSPGTAVLTVVPFHHGFGMFTTLGYLICGFRVVMLTKFDEETFLKTLQDYKCTYVILVPTLFAILNKSELLNKYDLSNLVEIASGGAPLSKEVGEAVARRFNLPGVRQGYGLTETTSAIIITPEGDDKPGASGKVVPLFKAKVIDLDTKKSLGPNRRGEVCVKGPMLMKGYVNNPEATKELIDEEGWLHTGDIGYYDEEKHFFIVDRLKSLIKYKGYQVPPAELESVLLQHPSIFDAGVAGVPDPVAGELPGAVVVLESGKNMTEKEVMDYVASQVSNAKRLRGGVRFVDEVPKGLTGKIDGRAIREILKKPVAKM
- expression level compared to native luciferase (NIH 3T3 cells): higher expression levels
- stability of the protein relative to wild type ([1]; after 1 hour): > 100 fold
- stability of the protein relative to wild type ([1]; after 2 hours): > 1000 fold
- thermostability compared with wild-type protein ([1]; room temperature): greater thermostability
